Data as given in the RNAGym collection of RNA variant scans (doi:10.1093/nar/gkz1192).

B1: CPEB3 Ribozyme (parent)
chain: UAACAGGGGGCCACAGCAGAAGCGUUCACGUCGCAGCCCCUGUCAGAUUCUGGUGAAUCUGCGAAUUCUGCUGUAUAUCUC

Variants of: B1
Experiment: self-cleavage, relative activity (ratio to wild type); higher = more cleavage; in vitro, sequencing
Method in brief: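 Barcoded CPEB3 ribozyme mutants, produced by rounds of error-prone PCR, self-cleaved while being transcribed with T7 RNA polymerase for 5 hours at 37°C and during a subsequent 15 min DNase I step before EDTA was added. Sequencing of template-switched cDNA on Illumina gave cleaved and total reads, and DNA sequencing assigned barcodes to variants. Each variant's relative activity is its cleaved/total read fraction divided by the unmutated ribozyme's fraction, averaged across three batches. A variant needed a minimum of 5 reads.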
G36U U48C gave a self-cleavage of 0.17.
A35U A65C showed a self-cleavage of 0.45.
With A35U A65U the self-cleavage was 0.26.
Variant A35U A65G has a self-cleavage of 0.26.
G36C U67C showed a self-cleavage of 0.18.
For G36C U69C, the self-cleavage was 0.11.
G36U C71U gave a self-cleavage of 0.1.
Variant G36A C62A has a self-cleavage of 0.41.
A35G U72G gave a self-cleavage of 1.29.
Work on A35G U72A yielded a self-cleavage of 1.22.
Variant A35G U72C has a self-cleavage of 1.26.
With A35G U74G the self-cleavage was 1.27.
A35G U74A gave a self-cleavage of 1.33.
Variant A35G U74C has a self-cleavage of 1.29.
Variant G36U G73A has a self-cleavage of 0.37.
For G36U A65G, the self-cleavage was 0.39.
In the case of G36U A65U, the self-cleavage is reported as 0.06.
G36A C50A showed a self-cleavage of 0.25.
With G36A A56G the self-cleavage was 0.19.
A35U U76A showed a self-cleavage of 0.65.
Work on A35U U76C yielded a self-cleavage of 0.52.
In the case of G36C A57U, the self-cleavage is reported as 0.13.
A35G G42A showed a self-cleavage of 0.5.
A35G G42C showed a self-cleavage of 0.16.
In the case of G36U, the self-cleavage is reported as 0.24.
Variant G36C has a self-cleavage of 0.31.
In the case of G36A, the self-cleavage is reported as 0.29.
Variant A35G G61U has a self-cleavage of 1.23.
A35G G61A gave a self-cleavage of 1.11.
In the case of A35G C81U, the self-cleavage is reported as 1.29.
With A35G C81A the self-cleavage was 1.3.
With A35U C81U the self-cleavage was 0.61.
With A35U C81G the self-cleavage was 0.39.
G36C U51A showed a self-cleavage of 0.16.
G36C U51C gave a self-cleavage of 0.39.
In the case of C37A A75G, the self-cleavage is reported as 0.19.
Work on G36C U72G yielded a self-cleavage of 0.19.
For G36C A47G, the self-cleavage was 0.15.
For G36C A47C, the self-cleavage was 0.13.
G36C C62U showed a self-cleavage of 0.15.
Variant A35U G46U has a self-cleavage of 0.19.
A35U G46A gave a self-cleavage of 0.16.
In the case of C37A U69A, the self-cleavage is reported as 0.12.
Work on G36C U78C yielded a self-cleavage of 0.14.
For G36A U80A, the self-cleavage was 0.13.
G36A U80C showed a self-cleavage of 0.34.
In the case of C37A A57G, the self-cleavage is reported as 0.2.
For A35U U54C, the self-cleavage was 0.5.
For A35U U54G, the self-cleavage was 0.58.
A35U U54A showed a self-cleavage of 0.55.
Work on G36C C38U yielded a self-cleavage of 0.27.
Work on G36C C38A yielded a self-cleavage of 0.16.
Variant A35U G73A has a self-cleavage of 0.88.
With G36A U41A the self-cleavage was 0.18.
Work on G36A U41C yielded a self-cleavage of 0.56.
Variant A35U U51C has a self-cleavage of 0.46.
Work on A35U U51G yielded a self-cleavage of 0.47.
Variant A35U U51A has a self-cleavage of 0.56.
In the case of A35U A45C, the self-cleavage is reported as 0.18.
For A35U A45G, the self-cleavage was 0.32.
Work on A35U A45U yielded a self-cleavage of 0.32.
For C37A U48A, the self-cleavage was 0.12.
C37A U48C showed a self-cleavage of 0.41.
Variant G36U U41A has a self-cleavage of 0.29.
G36U U41C gave a self-cleavage of 0.3.
Work on A35U A64U yielded a self-cleavage of 0.48.
A35U A64C showed a self-cleavage of 0.16.
A35U A64G gave a self-cleavage of 0.39.
Work on G36U G42A yielded a self-cleavage of 0.21.
Work on A35U A75U yielded a self-cleavage of 0.56.
With A35U A75C the self-cleavage was 0.71.
Work on A35U A75G yielded a self-cleavage of 0.58.
C37A G52U gave a self-cleavage of 0.35.
In the case of C37A U51C, the self-cleavage is reported as 0.17.
Work on C37A U41A yielded a self-cleavage of 0.19.
C37A U41C gave a self-cleavage of 0.25.
Variant G36C U49A has a self-cleavage of 0.17.
With G36A A65G the self-cleavage was 0.17.
G36A U76C showed a self-cleavage of 0.28.
Work on G36A U76G yielded a self-cleavage of 0.4.
With A35U U48C the self-cleavage was 0.32.
With A35U U48G the self-cleavage was 0.26.
A35U U48A gave a self-cleavage of 0.32.
A35U C79U showed a self-cleavage of 0.64.
C37A A45G gave a self-cleavage of 0.26.
For C37A A45C, the self-cleavage was 0.1.
For C37A A45U, the self-cleavage was 0.23.
With G36A U69A the self-cleavage was 0.32.
With G36A U69C the self-cleavage was 0.27.
Work on A35G U51A yielded a self-cleavage of 1.32.
For A35G U51C, the self-cleavage was 1.27.
Work on A35G U51G yielded a self-cleavage of 1.28.
Work on G36U C37U yielded a self-cleavage of 0.1.
A35U A47C showed a self-cleavage of 0.4.
With A35U A47U the self-cleavage was 0.26.
Variant A35U A47G has a self-cleavage of 0.48.
G36C U43C gave a self-cleavage of 0.28.
For A35U C39A, the self-cleavage was 0.27.
For A35U C39U, the self-cleavage was 0.49.
A35U A56U gave a self-cleavage of 0.33.
Work on A35U A56C yielded a self-cleavage of 0.23.
For A35U A56G, the self-cleavage was 0.5.
For C37A C68U, the self-cleavage was 0.09.
For G36C G55A, the self-cleavage was 0.12.
In the case of A35U U49A, the self-cleavage is reported as 0.39.
For A35U U49C, the self-cleavage was 0.27.
A35U G61U gave a self-cleavage of 0.42.
A35U G61A showed a self-cleavage of 0.27.
With A35G U67G the self-cleavage was 1.11.
A35G U67C showed a self-cleavage of 0.56.
Work on A35G U67A yielded a self-cleavage of 1.2.
G36A U72A gave a self-cleavage of 0.26.
For G36A U72C, the self-cleavage was 0.25.
Variant G36A U67C has a self-cleavage of 0.13.
Work on A35G G36U yielded a self-cleavage of 0.5.
A35G G36C showed a self-cleavage of 0.29.
In the case of A35G G36A, the self-cleavage is reported as 0.92.
For C37A A64G, the self-cleavage was 0.25.
Work on G36U A45G yielded a self-cleavage of 0.22.
Work on G36U A45U yielded a self-cleavage of 0.19.
With G36C U60C the self-cleavage was 0.13.
G36C U60A gave a self-cleavage of 0.08.
A35G G73A gave a self-cleavage of 1.46.
Variant G36A A75U has a self-cleavage of 0.36.
G36A A75C gave a self-cleavage of 0.28.
With C37A U67C the self-cleavage was 0.13.
C37A U67A showed a self-cleavage of 0.14.
C37A U67G gave a self-cleavage of 0.17.
Variant G36A U49C has a self-cleavage of 0.21.
In the case of G36A U54C, the self-cleavage is reported as 0.25.
Variant G36A U54A has a self-cleavage of 0.31.
A35U G70A gave a self-cleavage of 0.2.
A35U G70C showed a self-cleavage of 0.34.
With G36C A65G the self-cleavage was 0.13.
Work on C37A yielded a self-cleavage of 0.28.
Work on A35U C37U yielded a self-cleavage of 0.28.
A35G G52A showed a self-cleavage of 1.36.
In the case of A35G G52U, the self-cleavage is reported as 1.36.
A35G G52C gave a self-cleavage of 1.27.
With C37A U60C the self-cleavage was 0.09.
With C37A U60A the self-cleavage was 0.14.
With G36U U58C the self-cleavage was 0.53.
C37A G73C gave a self-cleavage of 0.38.
In the case of G36A U60C, the self-cleavage is reported as 0.13.
For G36A U60A, the self-cleavage was 0.18.
For A35G U69G, the self-cleavage was 1.33.
A35G U69C gave a self-cleavage of 1.2.
A35G U69A showed a self-cleavage of 1.22.
Variant C37A A65U has a self-cleavage of 0.36.
C37A A65G showed a self-cleavage of 0.16.
Variant A35U C71A has a self-cleavage of 0.13.
With A35U C71G the self-cleavage was 0.15.
For A35U C71U, the self-cleavage was 0.37.
For A35U C62U, the self-cleavage was 0.13.
In the case of A35U C62G, the self-cleavage is reported as 0.28.
A35U C62A showed a self-cleavage of 0.13.
A35U G53U showed a self-cleavage of 0.76.
With A35U G53A the self-cleavage was 0.51.
A35U C50A showed a self-cleavage of 0.43.
Work on G36U G61U yielded a self-cleavage of 0.13.
G36C U48C showed a self-cleavage of 0.4.
C37A C59U showed a self-cleavage of 0.24.
In the case of G36U U80A, the self-cleavage is reported as 0.29.
With G36U U80C the self-cleavage was 0.46.
For A35U C44U, the self-cleavage was 0.16.
For A35U C44A, the self-cleavage was 0.16.
In the case of G36U C59U, the self-cleavage is reported as 0.16.
